Assay results: the supplement of paper PMC10567573

B1: C9orf9 (parent)
chain: TKHKCRQLTKASLKPRGCSKPPWR

Variants of: B1
Experiment: protein stability index of a GFP-peptide fusion (GPS, HEK-293T) (PSI 1-6); higher = more stable
Details: c terminus: a fixed tail appended
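Further: lentivirally expressed fusions sorted by FACS into six bins by GFP to DsRed ratio, PSI derived from sequencing read proportions per bin multiplied by bin number.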

| Variant | protein stability index |
| --- | --- |
| TKHKCRQLTKASLKYRGCSKPPWR [P15Y] | 1.68 |
| TKHKCRQLTKASLKMRGCSKPPWR [P15M] | 2.32 |
| TKHKCRQLTKASLKWRGCSKPPWR [P15W] | 2.22 |
| TKHKCRQLTKASLKKRGCSKPPWR [P15K] | 3.52 |
| TKHKCRQLTKASLKHRGCSKPPWR [P15H] | 4.16 |
| TKHKCRQLTKASLKFRGCSKPPWR [P15F] | 2.77 |
| TKHKCRQLTKASLKIRGCSKPPWR [P15I] | 2.66 |
| TKHKCRQLTKASLKNRGCSKPPWR [P15N] | 2.86 |
| TKHKCRQLTKASLKCRGCSKPPWR [P15C] | 2.5 |
| TKHKCRQLTKASLKTRGCSKPPWR [P15T] | 2.67 |
| TKHKCRQLTKASLKDRGCSKPPWR [P15D] | 3.17 |
| TKHKCRQLTKASLKERGCSKPPWR [P15E] | 2.59 |
| TKHKCRQLTKASLKSRGCSKPPWR [P15S] | 3 |
| TKHKCRQLTKASLKRRGCSKPPWR [P15R] | 3.93 |
| TKHKCRQLTKASLKGRGCSKPPWR [P15G] | 3.41 |
| TKHKCRQLTKASLKLRGCSKPPWR [P15L] | 2.01 |
| TKHKCRQLTKASLKPRGFSKPPWR [C18F] | 2.69 |
| TKHKCRQLTKASLKPRGESKPPWR [C18E] | 3.01 |
| TKHKCRQLTKASLKPRGGSKPPWR [C18G] | 3.76 |
| TKHKCRQLTKASLKPRGKSKPPWR [C18K] | 3.42 |
| TKHKCRQLTKASLKPRGDSKPPWR [C18D] | 3.06 |
| TKHKCRQLTKASLKPRGHSKPPWR [C18H] | 3.02 |
| TKHKCRQLTKASLKPRGLSKPPWR [C18L] | 3.6 |
| TKHKCRQLTKASLKPRGISKPPWR [C18I] | 2.2 |

| Variant | protein stability index |
| --- | --- |
| TKHKCRQLTKASLKPRGASKPPWR [C18A] | 2.71 |
| TKHKCRQLTKASLKPTGCSKPPWR [R16T] | 2.67 |
| TKHKCRQLTKASLKPMGCSKPPWR [R16M] | 2.45 |
| TKHKCRQLTKASLKPWGCSKPPWR [R16W] | 1.69 |
| TKHKCRQLTKASLKPNGCSKPPWR [R16N] | 3.08 |
| TKHKCRQLTKASLKPAGCSKPPWR [R16A] | 2.72 |
| TKHKCRQLTKASLKPKGCSKPPWR [R16K] | 2 |
| TKHKCRQLTKASLKPVGCSKPPWR [R16V] | 3.76 |
| TKHKCRQLTKASLKPIGCSKPPWR [R16I] | 2.56 |
| TKHKCRQLTKASLKPPGCSKPPWR [R16P] | 3.31 |
| TKHKCRQLTKASLKPLGCSKPPWR [R16L] | 2.56 |
| TKHKCRQLTKASLKPCGCSKPPWR [R16C] | 2.75 |
| TKHKCRQLTKASLKPDGCSKPPWR [R16D] | 3.28 |
| TKHKCRQLTKASLKPSGCSKPPWR [R16S] | 2.89 |
| TKHKCRQLTKASLKPGGCSKPPWR [R16G] | 2.42 |
| TKHKCRQLTKASLKPEGCSKPPWR [R16E] | 2.33 |
| TKHKCRQLTKASLKPHGCSKPPWR [R16H] | 2.6 |
| TKHKCRQLTKASLKPYGCSKPPWR [R16Y] | 2.28 |
| TKHKCRQLTKASLKPRHCSKPPWR [G17H] | 2.76 |
| TKHKCRQLTKASLKPRFCSKPPWR [G17F] | 2.23 |
| TKHKCRQLTKASLKPRSCSKPPWR [G17S] | 2.82 |
| TKHKCRQLTKASLKPRQCSKPPWR [G17Q] | 3.6 |
| TKHKCRQLTKASLKPRDCSKPPWR [G17D] | 2.79 |
| TKHKCRQLTKASLKPRTCSKPPWR [G17T] | 2.78 |

| Variant | protein stability index |
| --- | --- |
| TKHKCRQLTKASLKPRLCSKPPWR [G17L] | 2.14 |
| TKHKCRQLTKASLKPRECSKPPWR [G17E] | 3.49 |
| TKHKCRQLTKASLKPRNCSKPPWR [G17N] | 2.43 |
| TKHKCRQLTKASLKPRRCSKPPWR [G17R] | 3.03 |
| TKHKCRQLTKASLKPRYCSKPPWR [G17Y] | 2.52 |
| TKHKCRQLTKASLKPRACSKPPWR [G17A] | 2.83 |
| TKHKCRQLTKASLKPRCCSKPPWR [G17C] | 1.83 |
| TKHKCRQLTKASLKPRKCSKPPWR [G17K] | 3.32 |
| TKHKCRQLTKASLKPRPCSKPPWR [G17P] | 2.08 |
| TKHKCRQLTKASLKPRWCSKPPWR [G17W] | 1.92 |
| TKHKCRQLTKASLKPRICSKPPWR [G17I] | 2.86 |
| TKHKCRQLTKASLKPRMCSKPPWR [G17M] | 2.09 |
| TKHKCRQLTKASFKPRGCSKPPWR [L13F] | 2.63 |
| TKHKCRQLTKASDKPRGCSKPPWR [L13D] | 3.64 |
| TKHKCRQLTKASGKPRGCSKPPWR [L13G] | 4.47 |
| TKHKCRQLTKASEKPRGCSKPPWR [L13E] | 2.91 |
| TKHKCRQLTKASMKPRGCSKPPWR [L13M] | 2.8 |
| TKHKCRQLTKASCKPRGCSKPPWR [L13C] | 3.26 |
| TKHKCRQLTKASHKPRGCSKPPWR [L13H] | 2.88 |
| TKHKCRQLTKASIKPRGCSKPPWR [L13I] | 3.22 |
| TKHKCRQLTKASYKPRGCSKPPWR [L13Y] | 2.43 |
| TKHKCRQLTKASRKPRGCSKPPWR [L13R] | 3.55 |
| TKHKCRQLTKASWKPRGCSKPPWR [L13W] | 3.03 |
| TKHKCRQLTKASSKPRGCSKPPWR [L13S] | 3.5 |

| Variant | protein stability index |
| --- | --- |
| TKHKCRQLTKASQKPRGCSKPPWR [L13Q] | 3.57 |
| TKHKCRQLTKASVKPRGCSKPPWR [L13V] | 2.33 |
| TKHKCRQLTKASTKPRGCSKPPWR [L13T] | 3.32 |
| TKHKCRQLTKASPKPRGCSKPPWR [L13P] | 3.42 |
| TKHKCRQLTKASNKPRGCSKPPWR [L13N] | 2.92 |
| TKHKCRQLTKASLQPRGCSKPPWR [K14Q] | 2.68 |
| TKHKCRQLTKASLIPRGCSKPPWR [K14I] | 2.2 |
| TKHKCRQLTKASLNPRGCSKPPWR [K14N] | 3.41 |
| TKHKCRQLTKASLPPRGCSKPPWR [K14P] | 2.98 |
| TKHKCRQLTKASLVPRGCSKPPWR [K14V] | 2.79 |
| TKHKCRQLTKASLCPRGCSKPPWR [K14C] | 2.63 |
| TKHKCRQLTKASLFPRGCSKPPWR [K14F] | 2.78 |
| TKHKCRQLTKASLEPRGCSKPPWR [K14E] | 3 |
| TKHKCRQLTKASLSPRGCSKPPWR [K14S] | 2.86 |
| TKHKCRQLTKASLMPRGCSKPPWR [K14M] | 1.73 |
| TKHKCRQLTKASLTPRGCSKPPWR [K14T] | 3.17 |
| TKHKCRQLTKASLYPRGCSKPPWR [K14Y] | 1.54 |
| TKHKCRQLTKASLWPRGCSKPPWR [K14W] | 2.56 |
| TKHKCRQLTKASLAPRGCSKPPWR [K14A] | 2.24 |
| TKHKCRQLTKASLLPRGCSKPPWR [K14L] | 2.75 |
| TKHKCRQLTKASLDPRGCSKPPWR [K14D] | 2.2 |
| TKHKCRQLTKASLRPRGCSKPPWR [K14R] | 2.52 |
